Data published in the nanobody polyreactivity screen of Harvey et al. (2022).

Test: yeast display, Sf9 membrane polyspecificity reagent, FACS + sequencing; frameworks hold sequencing errors
Summary of the method: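 Galactose-induced (36–48 hours) yeast carrying a synthetic nanobody display library were exposed to 10% biotinylated, detergent-solubilized Sf9 membrane reagent at 4 °C for 1 hour. FACS followed streptavidin microbead enrichment, using low and high (top ~1%) gates for expression (anti-HA) and reagent binding (streptavidin). Colony PCR, MiSeq 2 × 250 sequencing and CDR-length filtering followed. Labels for polyreactivity reflect the gate of origin.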

## QVHLVESGGGLVQAGGSLRLSCAASGGTFLVNAMGWYRQAPGKERELVAAINWSGGGTTYADSVKGRFTISRDNAKNTVYLQMNSLKPEDTAVYYCATGSYTTYGYGYWGQGTQVTVSS
  polyreactivity (PSR sort gate): high polyreactivity

## QVHLVESGGGLVQAGGSLRLSCAASGGTFRTYAMGWYRQAPGTERELVAAITWRGGSTYYADSVKGRFTISRDNAKNTVYLQMNSLKPEDTAVYYCAARGAYQWSFYKDDYWGQGTQVTVSS
  polyreactivity (PSR sort gate): high polyreactivity

## QVHLVESGGGLVQAGGSLRLSCAASGIIFDEYAMGWYSQAPGKERELVAAINWSGGITYYADSVKGRFTISRDNAKNTVYLQMNSLKPEDTAVYYCNKDPLVFDYWGQGTQVTVSS
  polyreactivity (PSR sort gate): low polyreactivity

## QVHLVESGGGLVQAGGSLRLSCAASGIISGGNAMGWYRQAPGKDRELVASINSGGSTNYADSVKGRFTISRDNALNSLYLKMNSLKPDDTAVYYGAGDYIDSTAYDYWGQGTKVTVSS
  polyreactivity (PSR sort gate): low polyreactivity

## QVHLVESGGGLVQAGGSLRLSCAASGITFRRNTMGWYRQAPGKERELVATISWRGGNTFYADSVKRRFTISRDNAKNTVYLQMHSLKPEDTAVYYCAVAFKGPSGYQYDYWGQGTQVTVSS
  polyreactivity (PSR sort gate): high polyreactivity

## QVHLVESGGGLVQAGGSLRLSCAASGITFYLYAMGRYRQAPAKERELVAAINASGGSTYYADSVKGRFTISRDNAKNTVYLQMNSLKPEDSGVYYCAASTKKTRGFNYWGQGSQVTVSS
  polyreactivity (PSR sort gate): high polyreactivity

## QVHLVESGGGLVQAGGSLRLSCAASGLIFLYYAMGWYRQAPGKERELVAAISSGGSTYYADSVKGRFTISRDNAKNTVFLQMNSLTPEDTAVYYCAAADSYSSLEYWGQGTQVTVSS
  polyreactivity (PSR sort gate): high polyreactivity

## QVHLVESGGGLVQAGGSLRLSCAASGLIFYDNMGWYRQAPGKERELVAAISSSGGSTSYADSVKGRFTISRDNAKNTVYLQMYSLKPEDTAVYYCAADSYPAYLGFVGYDYWGQGTQVTVSS
  polyreactivity (PSR sort gate): low polyreactivity

## QVHLVESGGGLVQAGGSLRLSCAASGLIFYRYAMGWYRQAPGKERELVATISRGGRTYYADSVKGRFTNSRDNAKNTVYLQMNSLKPEDTAVYYCNADRQWYSIGSWEYDYWGQGTQVTVSS
  polyreactivity (PSR sort gate): high polyreactivity

## QVHLVESGGGLVQAGGSLRLSCAASGLIIRYYAMGWYRQAPWKERELVAAITSRGGSTYYADSVKGRFKISRDNAKNTVYLQMNSLKPEDTAVYSCAAGLIFVSRFYVPYDYWGQGTQVTVSS
  polyreactivity (PSR sort gate): high polyreactivity

## QVHLVESGGGLVQAGGSLRLSCAASGLILGHYTMGWYRQAPGKERELVAAITSDGGSTYYADSVMGRFTISRDNAKNTVYLQMNSLKPEDTAVFYCAADLPAYTGYESDYWGQGTQVTGSS
  polyreactivity (PSR sort gate): low polyreactivity

## QVHLVESGGGLVQAGGSLRLSCAASGLPFSQNAMGWNRQAPGKERELVAAINTSDDSTYYADSVKGRFTISRDNAKNTVYLQMNSLKPEDTAVYDCAVDGYWYGGIFYYWGQGTQVTVSS
  polyreactivity (PSR sort gate): low polyreactivity

## QVHLVESGGGLVQAGGSLRLSCAASGLTLNSYVMGWYRQAPGKERELVARITSGGRTNYADSVKGRFTISRDNAKNTVYLQMNSVKPEDTAVYYCAVRSLSYARGGRSDFKVGYWGQGTQVTVSS
  polyreactivity (PSR sort gate): low polyreactivity

## QVHLVESGGGLVQAGGSLRLSCAASGNIIDSNAMGWYRHAPGKERELVAAITWSGGSTYYADSVKGRFTISRDNAKTTVYLPMNSLKPADTAVYYCAAYAQKRYYWGQGTQVTVSS
  polyreactivity (PSR sort gate): high polyreactivity

## QVHLVESGGGLVQAGGSLRLSCAASGNIITSYAMGWYRQAPGKERELVAAISSGGTTHYADSVKGRFTISRDNAKNTVYLQMNSLKPEDTAVYYCAARQVSYYKANDSWVRSEYDYWGQGTQVSVSS
  polyreactivity (PSR sort gate): low polyreactivity

## QVHLVESGGGLVQAGGSLRLSCAASGRIFADYAMGWYRHAPGKERELVAAISSTSSTNYADSVKGRFTISRDNAKNTVYLQMKSLKPEDTAVYYCAATAGSLTADYVSYTYNYWGQGTQVTVSS
  polyreactivity (PSR sort gate): low polyreactivity

## QVHLVESGGGLVQAGGSLRLSCAASGRIFAKNAMGWYRQAPGKERELVAAINHSGGSTYYADSVKGRFTISRDYAKNTVYLQMNSLNPEDTAVYYCDARGLTTRSPFYYWGQGTQVTVSS
  polyreactivity (PSR sort gate): high polyreactivity
